Source: the RNAGym collection of RNA variant scans (doi:10.1101/gr.219683.116)

B1: mRNA-splicing (parent)
chain: AGUUGCUGCUGGGAGCUCCAGCACAGUGAAAUGGACAGAAGGGCAGAGCAA

Variants of: B1
Assay: exon inclusion enrichment index; higher = more inclusion; WT1 exon 5 minigene, HEK293

Variant | exon inclusion enrichment index
AGUUGCUGCUGGGAGCUCCAGCACACGGAAAUGGACAGAAGGGCAGAGCAA [G26C U27G] | 0.615
AGUUGCUGCUGGGAGCUCCAGCACACCGAAAUGGACAGAAGGGCAGAGCAA [G26C U27C] | 0.584
AGUUGCUGCUGGGAGCUCCAGCACACAGAAAUGGACAGAAGGGCAGAGCAA [G26C U27A] | 0.11
AGUUGCUGCUGGGAGCUCCAGCACAACGAAAUGGACAGAAGGGCAGAGCAA [G26A U27C] | 0.0175
AGUUGCUGCUGGGAGCUCCAGCACAAAGAAAUGGACAGAAGGGCAGAGCAA [G26A U27A] | 0.101
AGUUGCUGCUGGGAGCUCCAGCACAAGGAAAUGGACAGAAGGGCAGAGCAA [G26A U27G] | 0.311
AGUUGCUGCUGGGAGCUCCAGCUCAGUGAAAUGGACAGAAGGGCAGAGCAA [A23U] | 0.475
AGUUGCUGCUGGGAGCUCCAGCGCAGUGAAAUGGACAGAAGGGCAGAGCAA [A23G] | 0.414
AGUUGCUGCUGGGAGCUCCAGCCCAGUGAAAUGGACAGAAGGGCAGAGCAA [A23C] | 0.646
AGUUGCUGCUGGGAGCUCCAGCAUUGUGAAAUGGACAGAAGGGCAGAGCAA [C24U A25U] | 0.208
AGUUGCUGCUGGGAGCUCCAGCAUGGUGAAAUGGACAGAAGGGCAGAGCAA [C24U A25G] | 0.487
AGUUGCUGCUGGGAGCUCCAGCAUCGUGAAAUGGACAGAAGGGCAGAGCAA [C24U A25C] | 1.23
AGUUGCUGCUGGGAGCUCCAGGCCAGUGAAAUGGACAGAAGGGCAGAGCAA [C22G A23C] | 1.36
AGUUGCUGCUGGGAGCUCCAGGGCAGUGAAAUGGACAGAAGGGCAGAGCAA [C22G A23G] | 1.07
AGUUGCUGCUGGGAGCUCCAGGUCAGUGAAAUGGACAGAAGGGCAGAGCAA [C22G A23U] | 0.496
AGUUGCUGCUGGGAGCUCCAGCACCGUGAAAUGGACAGAAGGGCAGAGCAA [A25C] | 1.1
AGUUGCUGCUGGGAGCUCCAGCACGGUGAAAUGGACAGAAGGGCAGAGCAA [A25G] | 0.595
AGUUGCUGCUGGGAGCUCCAGCACUGUGAAAUGGACAGAAGGGCAGAGCAA [A25U] | 0.241
AGUUGCUGCUGGGAGCUCCAGCACUUUGAAAUGGACAGAAGGGCAGAGCAA [A25U G26U] | 0.0827
AGUUGCUGCUGGGAGCUCCAGCACUAUGAAAUGGACAGAAGGGCAGAGCAA [A25U G26A] | 0.136
AGUUGCUGCUGGGAGCUCCAGCACUCUGAAAUGGACAGAAGGGCAGAGCAA [A25U G26C] | 0.235
AGUUGCUGCUGGGAGCUCCAGCACAGUGCAAUGGACAGAAGGGCAGAGCAA [A29C] | 0.0903
AGUUGCUGCUGGGAGCUCCAGCACAGUGUAAUGGACAGAAGGGCAGAGCAA [A29U] | 0.0295
AGUUGCUGCUGGGAGCUCCAGCACAGUGGAAUGGACAGAAGGGCAGAGCAA [A29G] | 0.272
AGUUGCUGCUGGGAGCUCCAGCACAGUGACCUGGACAGAAGGGCAGAGCAA [A30C A31C] | 0.337
AGUUGCUGCUGGGAGCUCCAGCACAGUGACUUGGACAGAAGGGCAGAGCAA [A30C A31U] | 0.103

Variant | exon inclusion enrichment index
AGUUGCUGCUGGGAGCUCCAGCACAGUGACGUGGACAGAAGGGCAGAGCAA [A30C A31G] | 0.41
AGUUGCUGCUGGGAGCUCCAGCACAGACAAAUGGACAGAAGGGCAGAGCAA [U27A G28C] | 0.192
AGUUGCUGCUGGGAGCUCCAGCACAGAUAAAUGGACAGAAGGGCAGAGCAA [U27A G28U] | 0.0261
AGUUGCUGCUGGGAGCUCCAGCACAGAAAAAUGGACAGAAGGGCAGAGCAA [U27A G28A] | 0.181
AGUUGCUGCUGGGAGCUCCAGCACGAUGAAAUGGACAGAAGGGCAGAGCAA [A25G G26A] | 0.573
AGUUGCUGCUGGGAGCUCCAGCACGUUGAAAUGGACAGAAGGGCAGAGCAA [A25G G26U] | 0.326
AGUUGCUGCUGGGAGCUCCAGCACGCUGAAAUGGACAGAAGGGCAGAGCAA [A25G G26C] | 0.272
AGUUGCUGCUGGGAGCUCCAGCAACGUGAAAUGGACAGAAGGGCAGAGCAA [C24A A25C] | 0.728
AGUUGCUGCUGGGAGCUCCAGCAAGGUGAAAUGGACAGAAGGGCAGAGCAA [C24A A25G] | 0.315
AGUUGCUGCUGGGAGCUCCAGCAAUGUGAAAUGGACAGAAGGGCAGAGCAA [C24A A25U] | 0.16
AGUUGCUGCUGGGAGCUCCAGCAGAGUGAAAUGGACAGAAGGGCAGAGCAA [C24G] | 0.0337
AGUUGCUGCUGGGAGCUCCAGCAAAGUGAAAUGGACAGAAGGGCAGAGCAA [C24A] | 0.223
AGUUGCUGCUGGGAGCUCCAGCAUAGUGAAAUGGACAGAAGGGCAGAGCAA [C24U] | 0.0472
AGUUGCUGCUGGGAGCUCCAGCAGGGUGAAAUGGACAGAAGGGCAGAGCAA [C24G A25G] | 0.0325
AGUUGCUGCUGGGAGCUCCAGCAGCGUGAAAUGGACAGAAGGGCAGAGCAA [C24G A25C] | 0.0375
AGUUGCUGCUGGGAGCUCCAGCAGUGUGAAAUGGACAGAAGGGCAGAGCAA [C24G A25U] | 0.0194
AGUUGCUGCUGGGAGCUCCAGCACAGUGAGAUGGACAGAAGGGCAGAGCAA [A30G] | 0.182
AGUUGCUGCUGGGAGCUCCAGCACAGUGACAUGGACAGAAGGGCAGAGCAA [A30C] | 0.184
AGUUGCUGCUGGGAGCUCCAGCACAGUGGUAUGGACAGAAGGGCAGAGCAA [A29G A30U] | 0.0289
AGUUGCUGCUGGGAGCUCCAGCACAGUGGGAUGGACAGAAGGGCAGAGCAA [A29G A30G] | 0.114
AGUUGCUGCUGGGAGCUCCAGCACAGUGGCAUGGACAGAAGGGCAGAGCAA [A29G A30C] | 0.0218
AGUUGCUGCUGGGAGCUCCAGCACAGGUAAAUGGACAGAAGGGCAGAGCAA [U27G G28U] | 0.00139
AGUUGCUGCUGGGAGCUCCAGCACAGGCAAAUGGACAGAAGGGCAGAGCAA [U27G G28C] | 0.101
AGUUGCUGCUGGGAGCUCCAGCACAGGAAAAUGGACAGAAGGGCAGAGCAA [U27G G28A] | 0.354
AGUUGCUGCUGGGAGCUCCAGAGCAGUGAAAUGGACAGAAGGGCAGAGCAA [C22A A23G] | 1.76
AGUUGCUGCUGGGAGCUCCAGAUCAGUGAAAUGGACAGAAGGGCAGAGCAA [C22A A23U] | 1.56

Variant | exon inclusion enrichment index
AGUUGCUGCUGGGAGCUCCAGACCAGUGAAAUGGACAGAAGGGCAGAGCAA [C22A A23C] | 2.97
AGUUGCUGCUGGGAGCUCCAGCACAGGGAAAUGGACAGAAGGGCAGAGCAA [U27G] | 0.0622
AGUUGCUGCUGGGAGCUCCAGCACAGAGAAAUGGACAGAAGGGCAGAGCAA [U27A] | 0.201
AGUUGCUGCUGGGAGCUCCAGCACAGCGAAAUGGACAGAAGGGCAGAGCAA [U27C] | 0.36
AGUUGCUGCUGGGAGCUCCAGCCUAGUGAAAUGGACAGAAGGGCAGAGCAA [A23C C24U] | 0.256
AGUUGCUGCUGGGAGCUCCAGCCAAGUGAAAUGGACAGAAGGGCAGAGCAA [A23C C24A] | 0.968
AGUUGCUGCUGGGAGCUCCAGCCGAGUGAAAUGGACAGAAGGGCAGAGCAA [A23C C24G] | 2.29
AGUUGCUGCUGGGAGCUCCAGCACAGCAAAAUGGACAGAAGGGCAGAGCAA [U27C G28A] | 0.0654
AGUUGCUGCUGGGAGCUCCAGCACAGCCAAAUGGACAGAAGGGCAGAGCAA [U27C G28C] | 0.105
AGUUGCUGCUGGGAGCUCCAGCACAGCUAAAUGGACAGAAGGGCAGAGCAA [U27C G28U] | 0.00627
AGUUGCUGCUGGGAGCUCCAGCACAGUGCCAUGGACAGAAGGGCAGAGCAA [A29C A30C] | 0.418
AGUUGCUGCUGGGAGCUCCAGCACAGUGCGAUGGACAGAAGGGCAGAGCAA [A29C A30G] | 0.677
AGUUGCUGCUGGGAGCUCCAGCACAGUGCUAUGGACAGAAGGGCAGAGCAA [A29C A30U] | 0.0782
AGUUGCUGCUGGGAGCUCCAGCACAUGGAAAUGGACAGAAGGGCAGAGCAA [G26U U27G] | 0.394
AGUUGCUGCUGGGAGCUCCAGCACAUCGAAAUGGACAGAAGGGCAGAGCAA [G26U U27C] | 0.588
AGUUGCUGCUGGGAGCUCCAGCACAUAGAAAUGGACAGAAGGGCAGAGCAA [G26U U27A] | 0.0316
AGUUGCUGCUGGGAGCUCCAGGACAGUGAAAUGGACAGAAGGGCAGAGCAA [C22G] | 2.76
AGUUGCUGCUGGGAGCUCCAGAACAGUGAAAUGGACAGAAGGGCAGAGCAA [C22A] | 2.09
AGUUGCUGCUGGGAGCUCCAGUACAGUGAAAUGGACAGAAGGGCAGAGCAA [C22U] | 1.27
AGUUGCUGCUGGGAGCUCCAGUGCAGUGAAAUGGACAGAAGGGCAGAGCAA [C22U A23G] | 1.77
AGUUGCUGCUGGGAGCUCCAGUCCAGUGAAAUGGACAGAAGGGCAGAGCAA [C22U A23C] | 1.24
AGUUGCUGCUGGGAGCUCCAGUUCAGUGAAAUGGACAGAAGGGCAGAGCAA [C22U A23U] | 1.19
AGUUGCUGCUGGGAGCUCCAGCACAGUGAGCUGGACAGAAGGGCAGAGCAA [A30G A31C] | 0.126
AGUUGCUGCUGGGAGCUCCAGCACAGUCAAAUGGACAGAAGGGCAGAGCAA [G28C] | 0.104
AGUUGCUGCUGGGAGCUCCAGCACAGUUAAAUGGACAGAAGGGCAGAGCAA [G28U] | 0.0227
AGUUGCUGCUGGGAGCUCCAGCACAGUAAAAUGGACAGAAGGGCAGAGCAA [G28A] | 0.0138

Variant | exon inclusion enrichment index
AGUUGCUGCUGGGAGCUCCAGCACAGUACAAUGGACAGAAGGGCAGAGCAA [G28A A29C] | 0.0703
AGUUGCUGCUGGGAGCUCCAGCACAGUAGAAUGGACAGAAGGGCAGAGCAA [G28A A29G] | 0.0365
AGUUGCUGCUGGGAGCUCCAGCACAGUAUAAUGGACAGAAGGGCAGAGCAA [G28A A29U] | 0.00899
AGUUGCUGCUGGGAGCUCCAGCACAGUUCAAUGGACAGAAGGGCAGAGCAA [G28U A29C] | 0.0665
AGUUGCUGCUGGGAGCUCCAGCACAGUUUAAUGGACAGAAGGGCAGAGCAA [G28U A29U] | 0.00946
AGUUGCUGCUGGGAGCUCCAGCACAGUUGAAUGGACAGAAGGGCAGAGCAA [G28U A29G] | 0.0875
AGUUGCUGCUGGGAGCUCCAGCACAUUGAAAUGGACAGAAGGGCAGAGCAA [G26U] | 0.137
AGUUGCUGCUGGGAGCUCCAGCACACUGAAAUGGACAGAAGGGCAGAGCAA [G26C] | 0.156
AGUUGCUGCUGGGAGCUCCAGCACAAUGAAAUGGACAGAAGGGCAGAGCAA [G26A] | 0.0943
AGUUGCUGCUGGGAGCUCCAGCGUAGUGAAAUGGACAGAAGGGCAGAGCAA [A23G C24U] | 0.167
AGUUGCUGCUGGGAGCUCCAGCGGAGUGAAAUGGACAGAAGGGCAGAGCAA [A23G C24G] | 1.64
AGUUGCUGCUGGGAGCUCCAGCGAAGUGAAAUGGACAGAAGGGCAGAGCAA [A23G C24A] | 1.56
AGUUGCUGCUGGGAGCUCCAGCACAGUGUCAUGGACAGAAGGGCAGAGCAA [A29U A30C] | 0.119
AGUUGCUGCUGGGAGCUCCAGCACAGUGUGAUGGACAGAAGGGCAGAGCAA [A29U A30G] | 0.237
AGUUGCUGCUGGGAGCUCCAGCACAGUGUUAUGGACAGAAGGGCAGAGCAA [A29U A30U] | 0.0389
AGUUGCUGCUGGGAGCUCCAGCUUAGUGAAAUGGACAGAAGGGCAGAGCAA [A23U C24U] | 0.078
AGUUGCUGCUGGGAGCUCCAGCUAAGUGAAAUGGACAGAAGGGCAGAGCAA [A23U C24A] | 0.217
AGUUGCUGCUGGGAGCUCCAGCUGAGUGAAAUGGACAGAAGGGCAGAGCAA [A23U C24G] | 0.96
AGUUGCUGCUGGGAGCUCCAGCACCAUGAAAUGGACAGAAGGGCAGAGCAA [A25C G26A] | 0.448
AGUUGCUGCUGGGAGCUCCAGCACCCUGAAAUGGACAGAAGGGCAGAGCAA [A25C G26C] | 0.435
AGUUGCUGCUGGGAGCUCCAGCACCUUGAAAUGGACAGAAGGGCAGAGCAA [A25C G26U] | 0.368
AGUUGCUGCUGGGAGCUCCAGCACAGUCGAAUGGACAGAAGGGCAGAGCAA [G28C A29G] | 0.405
AGUUGCUGCUGGGAGCUCCAGCACAGUCUAAUGGACAGAAGGGCAGAGCAA [G28C A29U] | 0.0556
AGUUGCUGCUGGGAGCUCCAGCACAGUCCAAUGGACAGAAGGGCAGAGCAA [G28C A29C] | 0.118
